From PMC12654924

Assays:
[1] = molecular target: hemagglutinin of the Asiatic toad influenza-like virus, ectodomain (Asiatic toad influenza-like virus); test: cryo-EM structure
[2] = molecular target: hemagglutinin of the spiny eel influenza-like virus, ectodomain (spiny eel influenza-like virus); test: cryo-EM structure

| Substance | stoichiometry N [1] | stoichiometry N [2] |
| --- | --- | --- |
| hemagglutinin of the Asiatic toad influenza-like virus, ectodomain (domain or fragment) | 3 | – |
| hemagglutinin of the spiny eel influenza-like virus, ectodomain (domain or fragment) | – | 3 |
